Experimental data: PMC6494814, “Kremen1-induced cell death is regulated by homo- and heterodimerization” (Cell Death Discovery, 2019)

B1: Kremen1 (Krm1), full length, Flag-tagged or HA-tagged (receptor, UniProt Q99N43 20-473, looked up)
chain: ARPAPGPRSGPECFTANGADYRGTQSWTALQGGKPCLFWNETFQHPYNTLKYPNGEGGLGEHNYCRNPDGDVSPWCYVAEHEDGVYWKYCEIPACQMPGNLGCYKDHGNPPPLTGTSKTSNKLTIQTCISFCRSQRFKFAGMESGYACFCGNNPDYWKHGEAASTECNSVCFGDHTQPCGGDGRIILFDTLVGACGGNYSAMAAVVYSPDFPDTYATGRVCYWTIRVPGASRIHFNFTLFDIRDSADMVELLDGYTHRVLVRLSGRSRPPLSFNVSLDFVILYFFSDRINQAQGFAVLYQATKEEPPQERPAVNQTLAEVITEQANLSVSAAHSSKVLYVITPSPSHPPQTAPGSHSWAPSVGANSHRVEGWTVYGLATLLILTVTAVVAKILLHVTFKSHRVPASGDLRDCRQPGASGDIWTIFYEPSTTISIFKKKLKGQSQQDDRNPLVSD
notes: Kremen1 (Krm1), transmembrane receptor, full length; Two differently tagged copies of the same full-length protein (Flag-Krm1, HA-Krm1), each with ONE tag, written as one molecule for the self-association; In rows with truncated Krm1 or with Krm2 the Flag-tagged copy is the bait; Vector pCAG-IRES-EGFP or pCS2; also called Flag-Krm1; HA-Krm1; source: HEK293T, transfected, in lysate; not shown: …

How the values were obtained:
[1] = target: B1; test: cell-based or functional assay
[2] = target: the molecule itself; test: cross-linking; HEK293T cells transfected with HA-Krm1 and Flag-Krm1, 0.2 mM BS3 (non cell-permeant) on ice for 30 min prior to lysis; straight western blots and anti-Flag immunoprecipitation with anti-HA blot

Row | Binder | proportion of cleaved Caspase-3+ cells among HA+ HEK293T cells transfected with HA-Krm1 and either GFP or Krm1secECD; the pair interfered with is Krm1 with Krm1 (dimerization) [1] [fold decrease] | stoichiometry N [2]
1 | HA-Krm1secECD, secreted ectodomain of Krm1 (lacks the transmembrane and intracellular domains) (domain or fragment, UniProt Q99N43 21-392, looked up) RPAPGPRSGPECFTANGADYRGTQSWTALQGGKPCLFWNETFQHPYNTLKYPNGEGGLGEHNYCRNPDGDVSPWCYVAEHEDGVYWKYCEIPACQMPGNLGCYKDHGNPPPLTGTSKTSNKLTIQTCISFCRSQRFKFAGMESGYACFCGNNPDYWKHGEAASTECNSVCFGDHTQPCGGDGRIILFDTLVGACGGNYSAMAAVVYSPDFPDTYATGRVCYWTIRVPGASRIHFNFTLFDIRDSADMVELLDGYTHRVLVRLSGRSRPPLSFNVSLDFVILYFFSDRINQAQGFAVLYQATKEEPPQERPAVNQTLAEVITEQANLSVSAAHSSKVLYVITPSPSHPPQTAPGSHSWAPSVGANSHRVEGWT | 2 | –
2 | B1 | – | 2
